The values that follow come from the DeepSol protein solubility set.

The nature of the data set: soluble on expression in E. coli; label from the status in PepcDB or PDB records.
Take “MDMISAFDIFKIGIGPSSSHTVGPMNAGKSFIDRLESSGLLTATSHIVVDLYGSLSLTGKGHATDVAIIMGLAGNSPQDVVIDEIPAFIELVTRSGRLPVTSGAHIVDFPVAKNIIFHPEMLPRHENGMRITAWKGQEELLSKTYYSVGGGFIVEEEHFGLSYDVETPVPYDFHSAGELLKMCDYNGLSISGLMMHNELALRSKAEIDAGFARIWQVMHDGIERGMNTEGVLPGPLNVPRRAVALRRQLVSSDNISNDPMNVIDWINMYALAVSEENAAGGRVVTAPTNGACGIIPAVLAYYDKFRRPVNERSIARYFLAAGAIGALYKMNASISGAEVGCQGEIGVACSMAAAGLTELLGGSPAQVCNAAEIAMEHNLGLTCDPVAGQVQIPCIERNAINAVKAVNAARMAMRRTSAPRVSLDKVIETMYETGKDMNDKYRETSRGGLAIKVVCG”: the “soluble on expression in E. coli” value is “soluble”.

Regarding “MLESVHQASAYTADVQPADVVIVGAGAAGLAAAHHLTRAGLTTAVLEAAPNVGGRMSTEKVDGFRLDRMGQLLSTAYPELRSTPGLDALPLREFSPGVLVHSDGHLHRVGEPGTPRSARGALTAARALASAPRQQRTPRAPRTQGASRPGLLGSPVGQSRLAGALARLAATPPDRLLSRPELPAARALSALGLPPRTIDGFLRPLLAALLCDPALETSSRCADLALRAFVTGRLCVPEGGADVLPELLAATLPPGTVHTGVRVTAVSTTSVTTKDHGELRCRAVLLATGARAAARLLPGLRVPGFHPVTVLHHTTDEPPLGDPALVLDAERGGPVAHTAVISRVDPSRAPAGRALVSSTVLGTPPPPDRLEAAVRAQLARLYRTSTARWELLAIHHDSEAVPAMPPPHDPRRPVRLLAGLYICGDHRDTSTVQGALRSGRRAAHALLTDVGAGQTSLEEPLETAALEHHHHHH”, the “soluble on expression in E. coli” value is reported as “not soluble”.

Take “MSQYGFVRVPREVEKAIPVVNAPRPRAVVPPPNSETARLVREYAAKELTAPVLNHSLRVFQYSVAIIRDQFPAWDLDQEVLYVTCLLHDIATTDKNMRATKMSFEYYGGILSRELVFNATGGNQDYADAVTEAIIRHQDLTGTGYITTLGLILQIATTLDNVGSNTDLIHIDTVSAINEQFPRLHWLSCFATVVDTENSRKPWGHTSSLGDDFSKKVICNTFGYN”: the “soluble on expression in E. coli” value was “not soluble”.

“MIDLAPLVRRLAGTPLAEWANGLQAQLDTKMSKGHGDLQRWQSALDALPALQPEKVDLTDSFTLETECDGETRTVLRKALLGLSPWRKGPFNVFGVHIDTEWRSDWKWSRVSPHLDLKGKRVLDVGCGNGYYQWRMLGAGADSVIGVDPNWLFFCQFQAMQRYLPDLPAWHLPFALEDLPANLEGFDTVFSMGVLYHRKSPIDHLLALKDCLVKGGELVMETLVIPGDVHQVLVPEDRYAQMRNVWFLPSVPALELWMRRAGFTDVRCVDVSHTTVEEQRSTEWMRFQSLGDYLDPNDHSKTVEGLPAPMRAVIVGRKP”: the “soluble on expression in E. coli” value is “not soluble”.

For “MGSSHHHHHHSSGLVPRGSHMIMLRIPTRSYCSPSKLIKGVGLSPLKKSLLSKKIKEDIHPSLPVRTRFAPSPTGFLHLGSLRTALYNYLLARNTNGQFLLRLEDTDQKRLIEGAEENIYEILKWCNINYDETPIKQSERKLIYDKYVKILLSSGKAYRCFCSKERLNDLRHSAMELKPPSMASYDRCCAHLGEEEIKSKLAQGIPFTVRFKSPERYPTFTDLLHGQINLQPQVNFNDKRYDDLILVKSDKLPTYHLANVVDDHLMGITHVIRGEEWLPSTPKHIALYNAFGWACPKFIHIPLLTTVGDKKLSKRKGDMSISDLKRQGVLPEALINFCALFGWSPPRDLASKKHECFSMEELETIFNLNGLTKGNAKVDDKKLWFFNKHFLQKRILNPSTLRELVDDIMPSLESIYNTSTISREKVAKILLNCGGSLSRINDFHDEFYYFFEKPKYNDNDAVTKFLSKNESRHIAHLLKKLGQFQEGTDAQEVESMVETMYYENGFSRKVTYQAMRFALAGCHPGAKIAAMIDILGIKESNKRLSEGLQFLQREKK”, the “soluble on expression in E. coli” value is listed as “soluble”.

On to “MDKLDTLTLFVRIVERGSFSAAAADLGVSRPVATAAIKALEVSLGARLLHRTTRHVRPTAEGSLYYQRCVSILAALEEANRSAGGSISGTIRVDVAGNLARTLLLPALPQFLARYPDITLQIGESERDVDLVREGVDCVIRGGHLPDSEMICRPLAGLQEITCASPTYLARYGTPHTIEGLTGHVMIGFVSSRTQRTLPLSFTQDGRQSEVSLPCRLLTSDADVGAEAARLGFGLYQAPLPRLEADLASGALTEVLADFRPAPLPLSLLYPSNRQLSARVQVFIDWVTALMKPPLAQQASGRLK”, for which the “soluble on expression in E. coli” value is given as “not soluble”.

Consider “MEWHFSLKEPHVLLFLPFEKYALPYPDPSQSWLSFGLTEIPVPEWTKNLEIITPWRPDFLKFANAQFRCSPEINQTCTHDGALLQLSKYRGFNQNCFLDLLERVKPGGWIIIGGNKTSGADSMMKWVKKIVPITNKFSKNHGLVFWIQVPQQIEKQNTAQLRSPPLTFENKFQTTSGMFSHGRIDPGSAVLASHMCKTISGKTADFGAGWGFLSHAALERSEKLTALDLYEADYNALKAAKQHLKHITTSLPIHFYWHDLVHEPITNLYDTIISNPPFHTQQTTDVSLGQHFIINAAKYLKPGGNLLLVANRHLPYETLLKRLFRTVLIYEKAHGFKVIEAYR”, for which the “soluble on expression in E. coli” value is “not soluble”.

Regarding “ATTYNAVVSKSSSDGKTFKTIADAIASAPAGSTPFVILIKNGVYNERLTITRNNLHLKGESRNGAVIAAATAAGTLKSDGSKWGTAGSSTITISAKDFSAQSLTIRNDFDFPANQAKSDSDSSKIKDTQAVALYVTKSGDRAYFKDVSLVGYQATLYVSGGRSFFSDCRISGTVDFIFGDGTALFNNCDLVSRYRADVKSGNVSGYLTAPSTNINQKYGLVITNSRVIRESDSVPAKSYGLGRPWHPTTTFSDGRYADPNAIGQTVFLNTSMDNHIYGWDKMSGKDKNGNTIWFNPEDSRFFEYKSYGAGATVSKDRRQLTDAQAAEYTQSKVLGDWTPTLP”, the “soluble on expression in E. coli” value is given as “soluble”.

As to “ANTAFVSSACNTQKIPSGSPFNRNLRAMLADLRQNTAFSGYDYKTSRAGSGGAPTAYGRATCKQSISQSDCTACLSNLVNRIFSICNNAIGARVQLVDCFIQYEQRSF”, the “soluble on expression in E. coli” value is reported as “soluble”.

As to “MGSDKIHHHHHHILFELCFGLAVAQKNLGFIHNDLHSDNIMFKKCQQQFKYYQFHNKFFKVPTWCRETKVIDFARGILKVGKTTYFSDVFKNEGDAGGQYQYLNSQKNKKFNFHFDLARLATTIREFTENKKELQEIDNLLVDWCLNKNGDNFLEMDDDFSLYVMIASTADKCLPKDQIDNKIFRDFLISKEDIPAGEIIY”, the “soluble on expression in E. coli” value is listed as “not soluble”.

For “MGHHHHHHSHMERFVVTAPPARNRSKTALYVTPLDRVTEFGGELHEDGGKLFCTSCNVVLNHVRKSAISDHLKSKTHTKRKAEFEEQNVRKKQRPLTASLQCNSTAQTEKVSVIQDFVKMCLEANIPLEKADHPAVRAFLSRHVKNGGSIPKSDQLRRTYLPDGYENENQLLNSQDC”, the “soluble on expression in E. coli” value was “soluble”.

Take “MRIFPVFLLTFSLFLIKEEIVTAEVKVSAPVVNQSGIKLNLERQFTGSDVAINRIHFSPDGQFLLTAAADGVGTLWTKEGEMLGQLQGQKPPMFNARLSPDRQILITTGYDGTIRLWNLQGELLEEQQPHRAAVADAIFSPDSQIIVTCSDDGQTKIFTRQGQEIASVLKSGTARNLAYHPQGLLIASVSDSGSLHLINPNGKIEREISTGQGRINNVNFSPNGEQLLTSGINGSAKLWNLAGELIHEYKVVPTGWVNSAQFYPKGEWLATASDDGTIRFWQKDGQLIYELPLVNARLTSLSFSPDGKQLAATSSQGQVWVFNLSYLEHHHHHH”: the “soluble on expression in E. coli” value is listed as “not soluble”.

For the sequence “MAHHHHHHMNGELNIGAGRVIFYRTIAKQNRNTLPLWTLQRHLYAYHPYVWFAIASASNAEAMEKLAERLGMKLVQDATTSYKISIRRSSELLDGELNAQLQCTKMNRPWDRFLITHYVRSQMPDLRFLVRARHPIKKRVTDAYLEADILRSTRDSVQSVLSPELGEVCYCCERVIRKWAMRTQTGVTLQLVETRRTPLIITKAGDEGERLEYEWIVVLPQKAERIDIAALSAELWDYGNVLARELEPGMEEFLSHTMTAAASY”, the “soluble on expression in E. coli” value is given as “not soluble”.

On to “SMATPNQTACNAESPVALEEAKTSGAPGSPQTPPERHDSGGSLPLTPRMESHSEDEDLAGAVGGLGWNSRSPRTQSPGGCSAEAVLARKKHRRRPSKRKRHWRPYLELSWAEKQQRDERQSQRASRVREEMFAKGQPVAPYNTTQFLMNDRDPEEPNLDVPHGISHPGSSGESEAGDSDGRGRAHGEFQRKDFSETYERFHTESLQGRSKQELVRDYLELEKRLSQAEEETRRLQQLQACTGQQSCRQVEELAAEVQRLRTENQRLRQENQMWNREGCRCDEEPGT”, for which the “soluble on expression in E. coli” value is recorded as “soluble”.

On to “GMKDNYDAPESMLTGRVMYNGEALQLRGNEAVQLQLYQHGYAKHDPINVYVNQDGMYSANLFDGEYQMITKSGNGPWTSEGRDTINVTVAGNTVQDVEVTPYYLVRDAQMTLEGNKVNASFKVEKVAGGGIDRVFFMLSTTQFVNDAEHNVDRYDETDNLDAYDETGKLYTFATRDYTDNSMFQTALKRGTLFGRICIWPKGSDQGIYSKVIRLK”, for which the “soluble on expression in E. coli” value is on record as “soluble”.

Turning to “MSLSQHIRKLDSDVSERLKSQACTVSLASAVREIVQNSVDAHATTIDVMIDLPNLSFAVYDDGIGLTRSDLNILATQNYTSKIRKMNDLVTMKTYGYRGDALYSISNVSNLFVCSKKKDYNSAWMRKFPSKSVMLSENTILPIDPFWKICPWSRTKSGTVVIVEDMLYNLPVRRRILKEEPPFKTFNTIKADMLQILVMHPMISLNVQYTDKLRINTEVLFRSKNITEGLTKHQQMSQVLRNVFGAEGHHHHHH”, the “soluble on expression in E. coli” value is on record as “soluble”.

“MNNSNENDVILAWWDWGHFITYYARRSPIAQGGPSVGVALYLLGKLNENWAINLGVDYVIVSYYDFLKFGAILSTANLSKRYNIRGYGLVVLPLRASTGALIFENRGYRAIVRHDKSWNAVIIYNGQMIYPRKLYVEHKEGVQEIKPPESNSNTYLYVNLNYGLEHHHHHH”: the “soluble on expression in E. coli” value is on record as “not soluble”.

Take “MEQLTVQGLVRLMGAGANLVCVVTDNERRTEAIVGQATARLKGAGSPLVWTCTDGFTRDGTVVPGTVDPVAALDHALAHPAPLMTLFKDLSWFWSDNPYVIRKLKEFAVRARGKAAVVLARDESVPAELREDIVVLGQGLPGIGEITAFLGQLKEREPVLAAACAGHPGLMDHLVVAAQGLDLVDIERGVRALRNVPEAAGHEMVRSLFETKQAVIRRSGIMEFVANDTAPEQVGGMENLKAWMERREQAFGLESIASGAALPKGILMMGIAGCGKSLFVKAIAARWRLPLIRLDMAAVYDGSFGTPESSLRKAFRTAEAVAPCVLWIDEIESGISVQGFKAEGGPASRLLGSFLTWMQEKKAPVFVAATANAIEMLPAEIIRKGRFDEVFYVGLPDAGAREDIFRIHLERQKADSARFDVPLLAGSTKGFSGAEIEQAVLSAAFEARADRRTLTQQDVIVAVSRTVPLSVTMAEQIKKIEAWAFKRAVPAAGKF”: the “soluble on expression in E. coli” value is listed as “not soluble”.

In the case of “MGSDKIHHHHHHMDSGMNEKTTAELEHLRGLIDGVDQQLLHLLRKRLDLVAQVGTVKHGAGLPIYAPQREAAMLAKRREEAKNMGIAPQLIEDILRRLMRESYLNEKDVGFKQVKKDLGSVVIVGGKGQLGGLFSQMLTLSGYQVNLLDKDDWQQADSLFADAGMVLVTVPIAITCELIREKLTQLPADCILADLTSIKTEPVKAMLEAHSGPVVGFHPMFGPDVGSLAKQVVVVCHGRSPEKYQWLLEQIAIWGARIVEAEPERHDSAMQLVQAMRHFSTFVYGLNLCKEEADIDTLLQFSSPIYRLELAMVGRLFAQSPELYADIIFAQQDSQHAIGDYLDNYREALELLKRGDRNEFIKQFQSVAKWFGDFAPQFQRESRIMLQSVNDMKTN”, the “soluble on expression in E. coli” value was “not soluble”.
